# Source: patent US20110269944
# How the values were obtained:
# [1] = test system: HGF-G1 precursor protein (HGF-NG with Leu488-Arg489 at the C-terminus of the α chain converted into His-Tyr)
# [2] = test system: HGF-G2 precursor protein (HGF-NG with Arg489-Val490 converted into Tyr-His)
# [3] = test system: HGF-NG precursor protein (5-amino-acid-deleted-type/glycosylation-deficient human HGF with the natural α chain-β chain boundary sequence Arg489-Val490)
# [4] = test system: HGF-G3 precursor protein (HGF-NG with Lys-Thr-Lys-Gln-Leu-Arg at 484-489 converted into Pro-Gly-Ala-Ala-His-Tyr)
# Sequence of HGF-G3 precursor protein (HGF-NG with Lys-Thr-Lys-Gln-Leu-Arg at 484-489 converted into Pro-Gly-Ala-Ala-His-Tyr) (chain, as listed by the source): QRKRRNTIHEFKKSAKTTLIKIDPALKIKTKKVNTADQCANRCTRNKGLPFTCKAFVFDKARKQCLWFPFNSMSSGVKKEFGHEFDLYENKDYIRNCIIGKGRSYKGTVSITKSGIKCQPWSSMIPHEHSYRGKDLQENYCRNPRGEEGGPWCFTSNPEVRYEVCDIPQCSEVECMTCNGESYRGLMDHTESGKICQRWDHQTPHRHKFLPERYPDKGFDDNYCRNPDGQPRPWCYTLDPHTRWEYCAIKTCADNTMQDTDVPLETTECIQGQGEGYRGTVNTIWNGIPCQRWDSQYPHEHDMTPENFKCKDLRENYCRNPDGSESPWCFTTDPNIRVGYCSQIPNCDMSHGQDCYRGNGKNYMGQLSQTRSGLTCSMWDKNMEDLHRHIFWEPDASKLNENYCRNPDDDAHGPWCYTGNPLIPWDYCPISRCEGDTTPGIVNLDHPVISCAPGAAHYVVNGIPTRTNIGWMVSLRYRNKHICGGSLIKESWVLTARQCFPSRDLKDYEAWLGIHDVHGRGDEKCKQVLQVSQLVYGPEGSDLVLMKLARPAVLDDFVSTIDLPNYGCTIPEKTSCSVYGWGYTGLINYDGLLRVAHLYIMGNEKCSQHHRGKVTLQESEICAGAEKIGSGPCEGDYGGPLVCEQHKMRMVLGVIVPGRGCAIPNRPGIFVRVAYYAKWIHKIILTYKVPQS
# Sequence of HGF-G2 precursor protein (HGF-NG with Arg489-Val490 converted into Tyr-His) (chain, as listed by the source): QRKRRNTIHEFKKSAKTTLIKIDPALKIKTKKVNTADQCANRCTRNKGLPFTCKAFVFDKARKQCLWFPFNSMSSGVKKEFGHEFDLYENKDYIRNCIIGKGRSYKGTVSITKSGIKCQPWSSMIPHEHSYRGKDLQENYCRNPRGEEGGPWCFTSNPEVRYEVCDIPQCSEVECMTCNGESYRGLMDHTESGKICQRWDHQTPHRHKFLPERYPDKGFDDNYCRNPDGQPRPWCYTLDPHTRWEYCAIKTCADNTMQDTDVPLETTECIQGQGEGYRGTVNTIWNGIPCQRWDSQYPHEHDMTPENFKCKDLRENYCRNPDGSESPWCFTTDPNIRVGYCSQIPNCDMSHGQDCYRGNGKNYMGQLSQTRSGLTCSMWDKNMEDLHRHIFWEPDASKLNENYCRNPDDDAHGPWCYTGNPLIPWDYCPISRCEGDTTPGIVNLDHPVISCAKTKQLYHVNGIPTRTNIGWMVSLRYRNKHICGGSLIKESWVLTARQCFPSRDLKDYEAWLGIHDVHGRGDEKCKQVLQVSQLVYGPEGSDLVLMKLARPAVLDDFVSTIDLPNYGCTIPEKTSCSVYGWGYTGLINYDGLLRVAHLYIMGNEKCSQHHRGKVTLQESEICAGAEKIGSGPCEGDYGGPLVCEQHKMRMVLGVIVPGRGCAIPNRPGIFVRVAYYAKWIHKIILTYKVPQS
# Sequence of HGF-NG precursor protein (5-amino-acid-deleted-type/glycosylation-deficient human HGF with the natural α chain-β chain boundary sequence Arg489-Val490) (chain, as listed by the source, stated change not applied): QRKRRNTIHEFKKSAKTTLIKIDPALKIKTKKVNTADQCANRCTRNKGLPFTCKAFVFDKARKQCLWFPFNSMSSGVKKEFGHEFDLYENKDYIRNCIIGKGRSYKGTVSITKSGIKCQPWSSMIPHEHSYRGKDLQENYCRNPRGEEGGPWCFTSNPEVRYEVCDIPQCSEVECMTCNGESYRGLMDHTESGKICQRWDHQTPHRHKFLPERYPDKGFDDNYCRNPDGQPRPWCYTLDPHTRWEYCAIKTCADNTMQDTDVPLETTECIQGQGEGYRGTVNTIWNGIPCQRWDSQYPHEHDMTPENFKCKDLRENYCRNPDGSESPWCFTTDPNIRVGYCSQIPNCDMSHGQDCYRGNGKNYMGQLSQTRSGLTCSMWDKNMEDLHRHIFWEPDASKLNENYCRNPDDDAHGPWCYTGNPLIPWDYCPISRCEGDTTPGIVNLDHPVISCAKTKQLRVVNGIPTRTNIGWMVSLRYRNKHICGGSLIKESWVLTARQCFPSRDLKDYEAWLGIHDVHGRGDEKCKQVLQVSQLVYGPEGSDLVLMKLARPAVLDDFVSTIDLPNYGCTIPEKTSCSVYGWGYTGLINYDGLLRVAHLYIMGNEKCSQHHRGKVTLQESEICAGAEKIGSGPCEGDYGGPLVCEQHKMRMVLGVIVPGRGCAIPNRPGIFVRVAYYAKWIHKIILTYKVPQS
# Sequence of HGF-G1 precursor protein (HGF-NG with Leu488-Arg489 at the C-terminus of the α chain converted into His-Tyr) (chain, as listed by the source): as the sequence (chain, as listed by the source, stated change not applied) above, with L457H, R458Y counted along it
substance,measurement,setting,value
Genenase I (made by New England Laboratory),"cleavage of the single-stranded precursor into α and β chain bands (western blot, reducing SDS-PAGE)",[1],"after Genenase I treatment, bands were detected at the same positions as those of the α chain and β chain of HGF-NG"
same,"cleavage of the single-stranded precursor into α and β chain bands (western blot, reducing SDS-PAGE)",[2],"after Genenase I treatment, bands were detected at the same positions as those of the α chain and β chain of HGF-NG"
same,"cleavage of the single-stranded precursor (western blot, reducing SDS-PAGE)",[3],HGF-NG precursor protein having a natural α chain-β chain boundary sequence was not cleaved by Genenase I
same,"cleavage of the single-stranded precursor into α and β chain bands (western blot, reducing SDS-PAGE)",[4],"after Genenase I treatment, bands were detected at the same positions as those of the α chain and β chain of HGF-NG"
